# IntAct's records for PubMed 22187462
# B1: Catenin beta-1 (Homo sapiens), P35222 (parent)
# chain: MATQADLMELDMAMEPDRKAAVSHWQQQSYLDSGIHSGATTTAPSLSGKGNPEEEDVDTSQVLYEWEQGFSQSFTQEQVADIDGQYAMTRAQRVRAAMFPETLDEGMQIPSTQFDAAHPTNVQRLAEPSQMLKHAVVNLINYQDDAELATRAIPELTKLLNDEDQVVVNKAAVMVHQLSKKEASRHAIMRSPQMVSAIVRTMQNTNDVETARCTAGTLHNLSHHREGLLAIFKSGGIPALVKMLGSPVDSVLFYAITTLHNLLLHQEGAKMAVRLAGGLQKMVALLNKTNVKFLAITTDCLQILAYGNQESKLIILASGGPQALVNIMRTYTYEKLLWTTSRVLKVLSVCSSNKPAIVEAGGMQALGLHLTDPSQRLVQNCLWTLRNLSDAATKQEGMEGLLGTLVQLLGSDDINVVTCAAGILSNLTCNNYKNKMMVCQVGGIEALVRTVLRAGDREDITEPAICALRHLTSRHQEAEMAQNAVRLHYGLPVVVKLLHPPSHWPLIKATVGLIRNLALCPANHAPLREQGAIPRLVQLLVRAHQDTQRRTSMGGTQQQFVEGVRMEEIVEGCTGALHILARDVHNRIVIRGLNTIPLFVQLLYSPIENIQRVAAGVLCELAQDKEAAEAIEAEGATAPLTELLHSRNEGVATYAAAVLFRMSEDKPQDYKKRLSVELTSSLFRTEPMAWNETADLGLDIGAQGEPLGYRQDDPSYRSFHSGGYGQDALGMDPMMEHEMGGHHPGADYPVDGLPDLGHAQDLMDGLPPGDSNQLAWFDTDL
# Variants of: B1
# Conditions: with andr_human AR
row,Variant,effect of a mutation on the interaction
1,K345A,disrupting interaction strength
2,Y306A,disrupting interaction strength
3,Y306A;K345A;W383A,disrupting interaction strength
4,W383A,disrupting interaction strength

# Variants of: B1
# Conditions: with NR5A2, O00482-1
# Sequence of NR5A2, O00482-1 (O00482 whole entry): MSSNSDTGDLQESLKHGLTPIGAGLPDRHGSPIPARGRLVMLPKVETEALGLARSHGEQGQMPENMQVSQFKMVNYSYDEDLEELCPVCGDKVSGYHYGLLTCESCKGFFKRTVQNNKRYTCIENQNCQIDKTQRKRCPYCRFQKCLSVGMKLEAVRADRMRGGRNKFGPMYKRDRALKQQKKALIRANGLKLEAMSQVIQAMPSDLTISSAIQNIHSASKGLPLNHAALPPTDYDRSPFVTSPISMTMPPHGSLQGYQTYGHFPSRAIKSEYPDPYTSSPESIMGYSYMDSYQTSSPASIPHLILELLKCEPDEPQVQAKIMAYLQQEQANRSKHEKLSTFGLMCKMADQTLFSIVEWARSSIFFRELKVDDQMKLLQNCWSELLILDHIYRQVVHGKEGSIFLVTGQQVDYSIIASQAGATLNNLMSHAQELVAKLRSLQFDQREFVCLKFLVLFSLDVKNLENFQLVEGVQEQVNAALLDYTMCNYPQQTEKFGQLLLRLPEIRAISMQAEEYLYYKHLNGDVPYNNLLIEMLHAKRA
row,Variant,effect of a mutation on the interaction
1,Y306A;K345A;W383A,disrupting interaction strength
